The source of these data is the RNAGym collection of RNA variant scans (doi:10.1073/pnas.2313332121).

First the molecules themselves.
B1: TPR t1 (parent)
chain: GACCAAUCUGCCCUCAGAGCUCGAGAACAUCUUCGGAUGCAGAGGAGGCAGGCUUCGGUGGCGCGAUAGCGCCAACGUCCUCAACCUCCAAUGCAUCCCACCACAUGAUGAUGCCUGAAGAGCCUUGGUUUUUUG

In the series the parent is B1. Kind of series: polymerase ribozyme fitness, log enrichment relative to wild type (log ratio); higher = more active; in vitro selection for triplet polymerase activity. The essentials: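 Fitness compares each genotype's enrichment to that of the wild type on a logarithmic scale, averaging replicates with inverse-variance weights. The logarithm is base 2. Enrichment came from Illumina sequencing of input and output libraries after one triplicate round of in vitro selection, which included frozen incubation at −7 °C, of PCR-built, transcribed mutant libraries of each subunit of a heterodimeric triplet polymerase ribozyme. Only genotypes with ≥10 input reads and ≥1 read per output were kept.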
For the variant GACCAAUCUGCCCUCAGAGCUCGAGAACAUCUUCGGAUGCUGAGGAGGCAGGCUUCGGUGGCGCGAUAGCGCCAACGCCCUCAACCUCCAAUGCAUCCCACCACAUGAUGAUGCCUGAAGAGCCUUGGUUUUUUG [A41U U78C], the “polymerase ribozyme fitness (log ratio)” value is -1.1.
The same measure for GACCAAUCUGCCCUCAGAGCUCGAGAACAUCUUCGGAUGCAAAGGAGGCAGGCUUCGGUGGCGCGAUAGCGUCAACGUCCUCAACCUCCAAUGCAUCCCACCACAUGAUGAUGCCUGAAGAGCCUUGGUUUUUUG [G42A C72U]: -2.31.
Then GACCAAUCUGCCCUCAGAGCUCGAGAACAUCUUCGGAUGCAAAGGAGGCAGGCUUCGGUGGCGCGAUAGCGCCAACGUCCUCAAGGUCCAAUGCAUCCCACCACAUGAUGAUGCCUGAAGAGCCUUGGCUUUUUG [G42A C85G C86G U129C], with -4.79; and GACCAAUCUGCCCUCAGAGCUCGAGAACAUCUUCGGAUGCAAAGAAGGCGGGCUUCGGUGGCGCGAUAGCGCCAACGUCCUCAACCUCCAAUGCAUCCCACCACAUGAUGAUUCCUGAAGAGCCUUGGAUUUUUA [G42A G45A A50G G113U U129A G135A], with -3.94.
Turning to GACCAAUCUGCCCUCAGAGCUCGAGAACAUCUUCGGAUGCUGAGGAGGCAGGCUUCGGUGGCGCGAUAGCGCCAACGUCCUCAACCUCCAAUGCAUCCCACCACAUGACGAUGUCUGAAUAGCCUUGGUUUUUUG [A41U U109C C114U G120U], the “polymerase ribozyme fitness (log ratio)” value was -4.6.
GACCAAUCUGCCCUCAGAGCUCGAGAACAUCUUCGGAUGCAAAGGAGGCAGGCUUCGGUGGCGCGAUAGCGCCAACGUCCUAAACCACCAAUCCAUCCCACCACAUGAUGAUGCCUGAAGAGCGUUGGUUUUUUG [G42A C82A U87A G93C C124G]: the “polymerase ribozyme fitness (log ratio)” value is -1.42.
Then GACCAAUCUGCCCUCAGAGCUCGAGAACAUCUUCGGAUGCAAAGGAGGCAGGCUUGGGUGGCGCGAUAGCGCCAACGUCCUCAAGCUCCAAUACAUCCCACCACAUGAUGAUGCCUGAACAGCCUUGGUUUUUUG [G42A C56G C85G G93A G120C], with -3.01; and GACCAAUCUGCCCUCAGAGCUCGAGAACAUCUUCGGAUGCAAAGUAGGCAGGCUUCGGUGGCGCGAUAGCGCCAACGUCCUCAACCUCCAAUGCAUCCCACCACAUGAUGAUGCCUGAAGAGCCUUGGUUUUUUG [G42A G45U], with -2.62.
Consider GACCAAUCUGCCCUCAGAGCUCGAGAACAUCUUCGGAUGCAAAGGAGGCAGGCUUCGGUGGCGCGAUAGAGCCAACGUCCUCAACCUCAAAUGCAUCCCACCACAUGAUGAUGCCUGAAGAGCUUUGGUUUUUUG [G42A C70A C89A C124U], for which the “polymerase ribozyme fitness (log ratio)” value is -4.
For the variant GACCAAUCUGCCCUCAGAGCUCGAGAACAUCUUCGGAUGCUGAGGAGGCAGGCCUCGGUGGCGCGAUAGCGCCAGCGUCCUCAACCUACAAUGCAUCCCACCACAUGAUGAUGCCUGAAGAGCCUUGGUUUUAUG [A41U U54C A75G C88A U133A], the “polymerase ribozyme fitness (log ratio)” value is -1.96.
The same measure for GACCAAUCUGCCCUCAGAGCUCGAGAACAUCUUCGGAUGCAAAGGAGGCAGGUUUCGGUGGCGUGAUAGCGCCAACGUCCUCAACCUCCAAUGCAUCCCACCACAAGAUGAUGCCUGAGGAGCCUUGGUUUUUUG [G42A C53U C64U U106A A119G]: -1.87.
Regarding GACCAAUCUGCCCUCAGAGCUCGAGAACAUCUUCGGAUGCAAAGUAGGCAGGCUUCUGUGGCGCGAUAGCGCCAACGUCCUCAACCUUCAAUGCAUCCCACCACAUGAUGAUGCCUGAAGAGCCUUGGUAUUUUG [G42A G45U G57U C88U U130A], the “polymerase ribozyme fitness (log ratio)” value was -3.68.
GACCAAUCUGCCCUCAGAGCUCGAGAACAUCUUCGGAUGCAAAGGAGGCAGGGUUCGGUGGCGCGAUAGCGCCAACGUCCUCAACCUCCAAUGCAUCCCACCACAUGAUGAUGCCUGAAGAGCCUUGGUUUUUUG [G42A C53G]: the “polymerase ribozyme fitness (log ratio)” value is -2.5.
The same measure for GACCAAUCUGCCCUCAGAGCUCGAGAACAUCUUCGGAUGCAAAGGAGGCAGGUUUCGGUGGCGCGAUAGCGCCAACGUCCUCAACCUCCAAUGCAUCCCACCACAUGAUGAUGCCUGAAGAGCCUUGGUUUUUUG [G42A C53U]: -2.41; for GACCAAUCUGCCCUCAGAGCUCGAGAACAUCUUCGGAUGCUGAGGAGGCAGGCUUCGGUGGCGCGAUAGCGCCAACGUCCUCAACCUCCAAUGCAUCCCACCACAUGAUGAUGCCUGAAUAGCCUUGGUUUUUUG [A41U G120U]: -1.11; for GACCAAUCUGCCCUCAGAGCUCGAGAACAUCUUCGGAUGCAAAGGAGGCAGGCUUCGGUGGCGCGAUAGCGCCAACGUCCUCAACCUCCAAUGCAUCCCACCACAUGAUGAUGCCUGAAGUGCCUUGGUUUUUUG [G42A A121U]: 0.623.
Take GACCAAUCUGCCCUCAGAGCUCGAGAACAUCUUCGGAUGCAAAGGAGGCAGGCUUCGGUGGCGCGAUAGCGCCAACGUCCUCAACCUCCAAUGCAUCCCAUCACAUGAUGAUGCCUGAAGAGCCUUGGUUUUUUG [G42A C101U]: the “polymerase ribozyme fitness (log ratio)” value is -1.9.
Consider GACCAAUCUGCCCUCAGAGCUCGAGAACAUCUUCGGAUGCAAAGGAGGCAGGCUUCGGUGGCGCGAUAGCGCCAACGUCCUCAACCUCCAAUGCAUCCCACCACAUGAUGAUGCCUGAAGAGCAUUGGUUUUUUG [G42A C124A], for which the “polymerase ribozyme fitness (log ratio)” value was -0.186.
The same measure for GACCAAUCUGCCCUCAGAGCUCGAGAACAUCUUCGGAUGCUGAGGAGGCAGGCUUCGGUGGCGCGAUAGCGCCAACGUCCUCAACCUCCAAUGCAUCCCACCACAUGAUGAUGCCUGAAGAGCCUUGGUCUUUUG [A41U U130C]: -1.35; for GACCAAUCUGCCCUCAGAGCUCGAGAACAUCUUCGGAUGCAAAGGAGGCAGGCUUCGGUGGCGCGAUAGCGCCAACGUCUUCAACCUCCAAUGCAUCCCACCACAUGAUGAUGCCUGAAGAGCCUUGGUUUUUUG [G42A C80U]: -2.64; for GACCAAUCUGCCCUCAGAGCUCGAGAACAUCUUCGGAUGCUGAGGAGGCAGGCCUCGGUGGCGCGAUAGCGCCAACGUCCUCAACCUCCAAUGCAUCCCACCACAUGAUGAUGCCUGAAGAGCUUUGGUUUUUUG [A41U U54C C124U]: 1.
